From patent publication US20170174733A1
pIC50: −log10 of the molar value. Like-named read-outs stand apart in the source and are kept apart here.

What was measured:
[1] = target: LRP6 on HEK293S cells (human) (UniProt O75581); assay: cell-based or functional assay
human VEGF (human) [2] = target: human VEGF (human) (UniProt P15692); assay: cell-based or functional assay
human VEGF (human) [3] = target: human VEGF (human) (UniProt P15692); assay: cell-based or functional assay; remark: listed apart in the source
biotinylated VEGF165 [4] = target: biotinylated VEGF165 (UniProt P15692); assay: competition binding ELISA: blocks biotinylated VEGF165 binding to coated VEGFR1-Fc
rat VEGF (rat) [5] = target: rat VEGF (rat) (UniProt P16612); assay: cell-based or functional assay
mouse VEGF (mouse) [6] = target: mouse VEGF (mouse) (UniProt Q00731); assay: cell-based or functional assay
biotinylated VEGF165 [7] = target: biotinylated VEGF165 (UniProt P15692); assay: competition binding ELISA: biotinylated VEGF165 premixed with the binder, then on coated VEGFR1-Fc (blocked partner), OD 450 nm
rat VEGF (rat) [8] = target: rat VEGF (rat) (UniProt P16612); assay: cell-based or functional assay; remark: listed apart in the source
mouse VEGF (mouse) [9] = target: mouse VEGF (mouse) (UniProt Q00731); assay: cell-based or functional assay; remark: listed apart in the source

Chain of human VEGF (human) (P15692 other isoform, or with tags, fused parts or gaps limits assumed): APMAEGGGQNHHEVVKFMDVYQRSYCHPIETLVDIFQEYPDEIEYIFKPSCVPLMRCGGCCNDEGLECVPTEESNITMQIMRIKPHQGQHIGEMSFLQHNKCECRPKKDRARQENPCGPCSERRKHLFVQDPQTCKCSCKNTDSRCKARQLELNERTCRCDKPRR
Chain of rat VEGF (rat) (P16612 other isoform, or with tags, fused parts or gaps limits assumed): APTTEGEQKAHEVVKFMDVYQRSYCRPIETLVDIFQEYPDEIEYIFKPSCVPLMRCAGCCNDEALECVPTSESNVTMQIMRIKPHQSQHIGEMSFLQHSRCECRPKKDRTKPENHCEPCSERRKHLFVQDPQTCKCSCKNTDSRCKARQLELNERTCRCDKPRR
Chain of mouse VEGF (mouse) (Q00731 other isoform, or with tags, fused parts or gaps limits assumed): as the sequence (P16612 other isoform, or with tags, fused parts or gaps limits assumed) above, with A10S, V14I, V75I counted along it
Chain of biotinylated VEGF165 (P15692 other isoform, or with tags, fused parts or gaps limits assumed): as the sequence (P15692 other isoform, or with tags, fused parts or gaps limits assumed) above
Chain of LRP6 on HEK293S cells (human) (O75581 20-1613): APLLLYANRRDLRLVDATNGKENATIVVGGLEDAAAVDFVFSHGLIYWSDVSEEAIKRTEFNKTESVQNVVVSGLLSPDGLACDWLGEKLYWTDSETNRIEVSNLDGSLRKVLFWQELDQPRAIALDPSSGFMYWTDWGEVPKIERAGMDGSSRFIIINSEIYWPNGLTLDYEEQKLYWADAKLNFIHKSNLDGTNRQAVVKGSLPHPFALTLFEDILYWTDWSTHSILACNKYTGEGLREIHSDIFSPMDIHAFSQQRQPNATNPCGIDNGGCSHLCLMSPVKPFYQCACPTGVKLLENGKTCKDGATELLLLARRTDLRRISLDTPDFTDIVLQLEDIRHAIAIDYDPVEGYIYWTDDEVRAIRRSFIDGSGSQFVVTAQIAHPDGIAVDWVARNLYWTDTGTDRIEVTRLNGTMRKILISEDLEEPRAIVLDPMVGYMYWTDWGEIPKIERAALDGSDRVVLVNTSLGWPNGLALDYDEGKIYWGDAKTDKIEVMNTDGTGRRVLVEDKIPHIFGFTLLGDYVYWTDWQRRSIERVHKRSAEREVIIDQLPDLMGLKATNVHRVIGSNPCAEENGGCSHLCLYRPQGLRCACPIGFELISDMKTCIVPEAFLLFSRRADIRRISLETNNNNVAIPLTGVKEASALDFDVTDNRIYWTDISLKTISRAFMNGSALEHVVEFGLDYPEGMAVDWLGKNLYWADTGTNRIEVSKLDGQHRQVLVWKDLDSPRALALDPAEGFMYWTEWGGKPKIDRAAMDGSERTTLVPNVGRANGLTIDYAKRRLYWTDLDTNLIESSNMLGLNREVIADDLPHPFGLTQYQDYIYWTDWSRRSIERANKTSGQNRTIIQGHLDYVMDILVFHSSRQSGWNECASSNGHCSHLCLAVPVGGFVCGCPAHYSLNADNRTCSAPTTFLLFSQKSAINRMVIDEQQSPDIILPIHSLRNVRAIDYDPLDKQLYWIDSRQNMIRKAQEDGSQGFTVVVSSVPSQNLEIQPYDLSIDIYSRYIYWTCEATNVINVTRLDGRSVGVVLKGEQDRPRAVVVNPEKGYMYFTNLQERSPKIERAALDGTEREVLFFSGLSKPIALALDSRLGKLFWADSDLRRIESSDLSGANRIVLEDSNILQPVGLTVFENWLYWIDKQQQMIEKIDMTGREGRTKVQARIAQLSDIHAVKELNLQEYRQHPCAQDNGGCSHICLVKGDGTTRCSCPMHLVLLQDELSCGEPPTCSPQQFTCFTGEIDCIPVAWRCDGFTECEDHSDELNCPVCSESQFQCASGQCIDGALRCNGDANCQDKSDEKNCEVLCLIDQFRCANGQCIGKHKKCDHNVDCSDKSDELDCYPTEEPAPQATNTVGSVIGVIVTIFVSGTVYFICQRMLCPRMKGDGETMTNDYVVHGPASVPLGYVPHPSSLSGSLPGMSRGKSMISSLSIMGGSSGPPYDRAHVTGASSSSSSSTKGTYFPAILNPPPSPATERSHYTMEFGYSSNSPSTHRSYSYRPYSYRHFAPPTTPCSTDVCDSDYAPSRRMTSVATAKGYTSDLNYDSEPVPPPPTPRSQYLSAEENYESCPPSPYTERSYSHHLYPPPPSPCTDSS

Substance: anti-LRP6 inhibitory antibody YW210.09
- IC50, inhibition of Wnt1 signaling (luciferase reporter, HEK293S cells transfected by WNT1) [1]: 28 nM

Substance: Lucentis (Fab)
- Inhibitory Activity (IC50, nM) against hVEGF in cell-based assays (human VEGF (human) [2]): 0.68 nM
- Inhibitory activity (IC50, nM) against VEGF in cell-based assays (human VEGF (human) [3]): 0.63 nM

Substance: G6 anti-VEGF antibody
- pIC50 (biotinylated VEGF165 [4]): 9.60
- Inhibitory Activity (IC50, nM) against hVEGF in cell-based assays (human VEGF (human) [2]): 0.14 nM
- Inhibitory activity (IC50, nM) against VEGF in cell-based assays (human VEGF (human) [2]): 0.21 nM
- Inhibitory activity (IC50, nM) against VEGF in cell-based assays (rat VEGF (rat) [5]): 0.13 nM
- Inhibitory activity (IC50, nM) against VEGF in cell-based assays (mouse VEGF (mouse) [6]): 0.12 nM
- pIC50 (biotinylated VEGF165 [7]): 9.70
- Inhibitory activity (IC50, nM) against VEGF in cell-based assays (rat VEGF (rat) [8]): 0.078 nM
- Inhibitory activity (IC50, nM) against VEGF in cell-based assays (mouse VEGF (mouse) [9]): 0.19 nM
